From patent publication US20250283885A1, “MODULAR BIOSENSOR FOR RECEPTOR TYROSINE KINASE ACTIVITY” (The Trustees of Princeton University, priority 2024, published 2025) come the findings set out here.

Assay [1] concerns the target T1, FGFR1 (Homo sapiens, UniProt P11362).
T1 construct: expressed in transfected cells; host or cells: NIH 3T3 cells expressing iRFP-ZtSH2
Description: FGFR1 pYtag in NIH 3T3 cells: clearance of cytosolic ZtSH2. Type of assay: cell-based. To be noted: not in cells with ITAM-less FGFR1. As to the method:
One advantage of the pYtag approach is its modularity: ITAMs can in principle be fused to the C-termini of many different RTKs and recruit ZtSH2 upon stimulation. Therefore, it was tested whether pYtags could be adapted to monitor the activity of receptors other than EGFR. pYtag biosensors were designed for two additional RTKs: 1) ErbB2, a ligandless member of the ErbB family that signals by heterodimerizing with ligand-bound EGFR; and 2) fibroblast growth factor receptor 1 (FGFR1), a non-ErbB family RTK. ErbB2 is a particularly challenging RTK to study because it can only be activated in conjunction with an additional RTK (e.g., EGFR), so Grb2-based biosensors would be unable to distinguish between the activity of EGFR and ErbB2.
Starting from NIH 3T3 cells expressing iRFP-ZtSH2, cell lines expressing either an ErbB2 pYtag (ErbB2-CD3ε-FusionRed), an FGFR1 pYtag (FGFR1-CD3ε-FusionRed), or ITAM-less variants of each were generated. For the ErbB2 case, cells with EGFR-Citrine were further transduced to express both required components of a functional receptor heterodimer (see FIG. 3, and FIGS. 4A-4B).
The pYtag approach is indeed modular, and this strategy can be readily adapted for monitoring the activation of distinct RTKs in individual cells.

For assay [2], the target named is EGFR (Homo sapiens, UniProt P00533). The assay can be described thus: EGFR pYtag live-cell imaging: clearance of cytosolic ZtSH2 in NIH 3T3 cells. To be noted: varying doses, NIH 3T3 EGFR pYtag.
Description: Six ITAMs from the CD3γ, CD3δ, CD3ε, and CD3ζ chains of the TCR. In each case, three identical repeats of the ITAM were fused to the C-terminal tail of EGFR followed by the FusionRed fluorescent protein (EGFR-ITAM-FusionRed). Each receptor was the co-expressed with an iRFP-labeled ZtSH2 (iRFP-ZtSH2) in NIH 3T3 fibroblasts, which express negligible levels of EGFR. […] Because ZtSH2 can in principle be recruited rapidly on and off the membrane and may localize to distinct subcellular compartments, it was reasoned that pYtags could be used to monitor the subcellular activity of an RTK in individual cells over time.

T1 sequence (P11362 22-822, species assumed): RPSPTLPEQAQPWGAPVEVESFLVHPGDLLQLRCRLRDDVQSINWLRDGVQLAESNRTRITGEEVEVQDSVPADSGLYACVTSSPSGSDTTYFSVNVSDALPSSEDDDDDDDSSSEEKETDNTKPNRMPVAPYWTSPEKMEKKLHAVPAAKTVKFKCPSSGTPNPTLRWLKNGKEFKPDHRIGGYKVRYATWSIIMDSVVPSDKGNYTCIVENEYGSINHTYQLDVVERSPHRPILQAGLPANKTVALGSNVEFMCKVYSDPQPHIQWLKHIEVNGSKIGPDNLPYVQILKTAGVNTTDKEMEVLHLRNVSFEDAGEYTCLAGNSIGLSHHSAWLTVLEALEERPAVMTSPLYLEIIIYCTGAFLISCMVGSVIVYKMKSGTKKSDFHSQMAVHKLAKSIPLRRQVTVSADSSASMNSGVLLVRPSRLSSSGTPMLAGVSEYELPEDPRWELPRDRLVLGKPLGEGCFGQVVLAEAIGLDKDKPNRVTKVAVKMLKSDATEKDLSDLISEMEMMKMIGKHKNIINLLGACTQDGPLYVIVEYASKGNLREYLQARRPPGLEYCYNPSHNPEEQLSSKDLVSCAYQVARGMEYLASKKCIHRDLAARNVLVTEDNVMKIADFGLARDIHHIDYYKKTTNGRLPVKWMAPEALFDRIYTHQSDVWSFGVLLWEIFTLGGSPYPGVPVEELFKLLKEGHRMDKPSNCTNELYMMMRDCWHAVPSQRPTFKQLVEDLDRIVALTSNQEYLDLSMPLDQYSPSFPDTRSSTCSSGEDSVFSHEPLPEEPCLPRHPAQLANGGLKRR

B1: FGF4: activating ligand used to stimulate FGFR1 pYtag-expressing cells (protein, UniProt P08620 31-206, looked up)
Fibroblast growth factor 4: APTAPNGTLEAELERRWESLVALSLARLPVAAQPKEAAVQSGAGDYLLGIKRLRRLYCNVGIGFHLQALPDGRIGGAHADTRDSLLELSPVERGVVSIFGVASRFFVAMSSKGKLYGSPFFTDECTFKEILLPNNYNAYESYKYPGMFIALSKNGKTKKGNRVSPTMKVTHFLPRL
For the molecule B1, the “ZtSH2 response of FGFR1 pYtag-expressing cells” value in assay [1] is recorded as “induced cytosolic clearance of ZtSH2”.

B2: EPGN: epigen, low-affinity EGFR ligand (protein, UniProt Q6UW88 23-154, looked up)
Epigen: AAVTVTPPITAQQGNWTVNKTEADNIEGPIALKFSHLCLEDHNSYCINGACAFHHELEKAICRCFTGYTGERCEHLTLTSYAVDSYEKYIAIGIGVGLLLSGFLVIFYCYIRKRCLKLKSPYNVCSGERRPL
B2: the “EGFR activity dynamics after low-affinity ligand” value in assay [2] is listed as “rapid rise in EGFR activity followed by a plateau within minutes”.
